Results: the supplement of paper PMC9112550, “Optimization of the antimicrobial peptide Bac7 by deep mutational scanning” (BMC Biology, 2022)

test system: Escherichia coli TOP10; test: shrunken log2 fold change of peptide-encoding DNA abundance (4.5 h post-induction vs induction); higher = less antimicrobial activity (less host growth inhibition); settings: time post-induction: 4.5 h; library: site-saturation at positions 5, 18, 19, 20
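Also: peptides expressed intracellularly from a pBAD plasmid library in pooled LB shake-flask culture, induced with 0.3% L-arabinose, DNA abundance read by NGS, three biological replicates, DESeq2 with apeglm shrinkage.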

Sequence	shrunken log2 fold change
RRIRARPPRLPRPRPRPWTKPRP	0.167
RRIRFRPPRLPRPRPRPQWTPRP	-0.075
RRIRCRPPRLPRPRPRPTMAPRP	-0.0611
RRIRYRPPRLPRPRPRPPHGPRP	-0.0619
RRIRKRPPRLPRPRPRPCWNPRP	-0.228
RRIRHRPPRLPRPRPRPDPVPRP	0.126
RRIRMRPPRLPRPRPRPWDPPRP	0.287
RRIRGRPPRLPRPRPRPRIPPRP	0.424
RRIRHRPPRLPRPRPRPMTTPRP	-0.125
RRIRYRPPRLPRPRPRPTCNPRP	-0.351
RRIRHRPPRLPRPRPRPYNGPRP	-0.835
RRIRRRPPRLPRPRPRPIVFPRP	0.00406
RRIRIRPPRLPRPRPRPPRYPRP	-0.217
RRIRGRPPRLPRPRPRPRSSPRP	0.128
RRIRTRPPRLPRPRPRPKNHPRP	-0.712
RRIRPRPPRLPRPRPRPMSGPRP	0.115
RRIRTRPPRLPRPRPRPQKDPRP	-0.455
RRIRFRPPRLPRPRPRPYLFPRP	0.425
RRIRKRPPRLPRPRPRPNDKPRP	-0.0282
RRIRARPPRLPRPRPRPSIYPRP	-0.404
RRIRCRPPRLPRPRPRPQEQPRP	0.0612
RRIRDRPPRLPRPRPRPFNCPRP	0.0412
RRIRWRPPRLPRPRPRPDMWPRP	0.228
RRIRSRPPRLPRPRPRPGWQPRP	-0.339
RRIRHRPPRLPRPRPRPLHWPRP	0.0266

Sequence	shrunken log2 fold change
RRIRMRPPRLPRPRPRPEMSPRP	-0.00133
RRIRQRPPRLPRPRPRPWIFPRP	-0.0561
RRIRNRPPRLPRPRPRPCWEPRP	-0.0598
RRIRMRPPRLPRPRPRPGHTPRP	0.488
RRIRTRPPRLPRPRPRPTDEPRP	0.491
RRIRYRPPRLPRPRPRPSKHPRP	-0.786
RRIRWRPPRLPRPRPRPRSMPRP	0.0304
RRIRLRPPRLPRPRPRPHSTPRP	-0.149
RRIRQRPPRLPRPRPRPWLVPRP	-0.0624
RRIRCRPPRLPRPRPRPTCFPRP	0.152
RRIRRRPPRLPRPRPRPVKYPRP	-0.167
RRIRERPPRLPRPRPRPCYTPRP	-0.0917
RRIRCRPPRLPRPRPRPPFWPRP	0.649
RRIRGRPPRLPRPRPRPPLMPRP	0.717
RRIRTRPPRLPRPRPRPAVMPRP	0.06
RRIRYRPPRLPRPRPRPLVLPRP	-0.206
RRIRNRPPRLPRPRPRPVYVPRP	-0.284
RRIRYRPPRLPRPRPRPGEIPRP	-0.0481
RRIRCRPPRLPRPRPRPGLVPRP	0.0569
RRIRCRPPRLPRPRPRPSVNPRP	-0.348
RRIRNRPPRLPRPRPRPHGTPRP	-0.105
RRIRERPPRLPRPRPRPWYPPRP	-0.224
RRIRLRPPRLPRPRPRPKSYPRP	-0.592
RRIRFRPPRLPRPRPRPQNDPRP	-0.296
RRIRYRPPRLPRPRPRPHHAPRP	-0.00186

Sequence	shrunken log2 fold change
RRIRMRPPRLPRPRPRPGQGPRP	0.269
RRIRNRPPRLPRPRPRPWCNPRP	-0.507
RRIRFRPPRLPRPRPRPNNDPRP	-0.673
RRIRQRPPRLPRPRPRPCMLPRP	-0.239
RRIRARPPRLPRPRPRPPELPRP	0.947
RRIRSRPPRLPRPRPRPMVGPRP	0.158
RRIRDRPPRLPRPRPRPDQYPRP	0.00642
RRIRFRPPRLPRPRPRPRMAPRP	0.375
RRIRARPPRLPRPRPRPWSDPRP	0.15
RRIRDRPPRLPRPRPRPWYHPRP	-0.0258
RRIRLRPPRLPRPRPRPNVVPRP	-0.19
RRIRVRPPRLPRPRPRPSWLPRP	0.23
RRIRLRPPRLPRPRPRPKFGPRP	0.146
RRIRNRPPRLPRPRPRPPTRPRP	0.29
RRIRKRPPRLPRPRPRPMVCPRP	0.00938
RRIRSRPPRLPRPRPRPCFFPRP	-0.248
RRIRTRPPRLPRPRPRPTQNPRP	0.385
RRIRERPPRLPRPRPRPDSWPRP	-0.563
RRIRNRPPRLPRPRPRPFSDPRP	-0.246
RRIRKRPPRLPRPRPRPLVHPRP	0.0415
RRIRWRPPRLPRPRPRPDKFPRP	-0.427
RRIRERPPRLPRPRPRPGYFPRP	-0.0348
RRIRYRPPRLPRPRPRPRKCPRP	-0.247
RRIRWRPPRLPRPRPRPHDCPRP	-0.00141
RRIRFRPPRLPRPRPRPGHNPRP	-0.409
